± gives the standard deviation of the averaged measurements.
B1: library; a variant is named by its letters at N, in order (parent)
chain: GCUGUCACCGGAAUACCAGCAUCGUCUUGAUGCCCUUGGAAGUCCGGUCUGAUGAGUCCNNNNNGGACGAAACAGC

Columns and labels:
theophylline [1] = variants of: B1; test: FACS-Seq fitted mean relative fluorescence mCherry/BFP without ligand (log10 relative fluorescence); higher = higher reporter protein expression; settings: HEK293T, ligand present: no
Summary of the method: (§1)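 To measure fluorescence, a normal distribution was fitted to read counts across sorted bins. The reporter libraries were HEK293T cells transduced by lentivirus with mCherry under ribozyme-switch control and an EF1α-BFP marker, enriched and then kept with or without ligand for 48 h. Sorting used 6 mCherry/BFP bins, and bin genomic DNA was PCR-amplified and sequenced on MiSeq. Fitted means of log10(mCherry/BFP) were scaled to five spiked-in control ribozymes.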

theophylline [2] = variants of: B1; test: normalized RNA/DNA level with ligand (relative to sTRSVctl = 100) (log10 (% of sTRSVctl)); higher = less ribozyme self-cleavage, higher mRNA level; settings: ligand concentration (+) RNA-Seq: 5 mM, HEK293T, reporter: mCherry (pCS4076), ligand present: yes
Summary of the method: (§2)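 RNA level was computed as RNA reads over DNA reads divided by a spiked-in non-cleaving sequence or by the top sequences, then scaled and log-transformed. Scaling was ×100 with log10, the top group was 25 sequences, and the threshold was ≥100 DNA reads. The reads came from HEK293T cells transfected at 4 µg per 6-well well with ribozyme switch library plasmids (mCherry, or eGFP in some ligand experiments). Total RNA was extracted with EDTA 72 h after transfection, with any ligand added 1 h before it.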

theophylline [3] = variants of: B1; test: normalized RNA/DNA level without ligand (relative to sTRSVctl = 100) (log10 (% of sTRSVctl)); higher = less ribozyme self-cleavage, higher mRNA level; settings: HEK293T, reporter: mCherry (pCS4076), ligand present: no
Summary of the method: as §2

theophylline [4] = variants of: B1; test: FACS-Seq fitted mean relative fluorescence mCherry/BFP with ligand (log10 relative fluorescence); ligand concentration (+) FACS-Seq: 1 mM; higher = higher reporter protein expression; settings: HEK293T, ligand present: yes
Summary of the method: as §1

Row | Variant | FACS-Seq fitted mean (log10) (theophylline [1]) | normalized RNA/DNA level with ligand (log10) (theophylline [2]) | normalized RNA/DNA level without ligand (log10) (theophylline [3]) | FACS-Seq fitted mean (log10) (theophylline [4])
1 | UUAGC | 0.886 ± 0.052 | 1.97 ± 0.029 | 1.94 ± 0.042 | 0.916 ± 0.035
2 | CCUUA | 0.654 ± 0.02 | 1.992 ± 0.0039 | 1.73 ± 0.1 | 0.707 ± 0.035
3 | UCACU | 0.354 ± 0.029 | 2.003 ± 0.0094 | 1.85 ± 0.092 | 0.438 ± 0.015
4 | UCGCA | 0.556 ± 0.006 | 1.96 ± 0.055 | 1.57 ± 0.12 | 0.806 ± 0.091
5 | AUGCC | 0.828 ± 0.054 | 2 ± 0.033 | 1.96 ± 0.071 | 0.852 ± 0.022
6 | UGGAC | 0.19 ± 0.013 | 2 ± 0.049 | 1.93 ± 0.056 | 0.236 ± 0.01
7 | GAUUG | 0.498 ± 0.059 | 1.98 ± 0.1 | 1.75 ± 0.12 | 0.711 ± 0.017
8 | CUUUU | 1.04 ± 0.014 | 1.992 ± 0.0085 | 1.91 ± 0.045 | 1.15 ± 0.12
9 | CCCAU | 0.699 ± 0.08 | 1.97 ± 0.028 | 1.901 ± 0.019 | 0.822 ± 0.04
10 | CGAAA | 0.0755 ± 0.05 | 1.94 ± 0.023 | 1.31 ± 0.092 | 0.587 ± 0.042
11 | GAGUU | 0.55 ± 0.013 | 1.89 ± 0.025 | 1.6731 ± 0.00032 | 0.742 ± 0.063
12 | UUACU | 1.05 ± 0.07 | 2.08 ± 0.052 | 1.93 ± 0.058 | 1.01 ± 0.18
13 | CAUGA | 0.56151 ± 0.00013 | 2.03 ± 0.064 | 1.69 ± 0.1 | 0.619 ± 0.12
14 | UUAUC | 1.09 ± 0.15 | 2.04 ± 0.049 | 1.96 ± 0.16 | 1.19 ± 0.12
15 | AGCCA | 0.758 ± 0.027 | 1.98 ± 0.038 | 1.857 ± 0.0057 | 0.919 ± 0.027
16 | GACUG | 0.5397 ± 0.0016 | 1.98 ± 0.076 | 1.804 ± 0.0069 | 0.61 ± 0.081
17 | GACUU | 0.702 ± 0.12 | 2.1 ± 0.051 | 1.79 ± 0.038 | 0.696 ± 0.051
18 | UAUGG | 0.926 ± 0.12 | 1.965 ± 0.014 | 1.86 ± 0.12 | 0.992 ± 0.017
19 | UAUGU | 0.685 ± 0.011 | 2.111 ± 0.021 | 1.97 ± 0.035 | 0.621 ± 0.026
20 | AAAGU | 0.9033 ± 0.0058 | 1.923 ± 0.018 | 1.58 ± 0.018 | 1.1 ± 0.046
21 | GAUCU | 0.704 ± 0.15 | 1.98 ± 0.055 | 1.85 ± 0.03 | 0.81 ± 0.17
22 | GAUCG | 1.12 ± 0.081 | 1.9 ± 0.031 | 1.78 ± 0.05 | 1.17 ± 0.094
23 | AAUGA | 0.467 ± 0.024 | 1.964 ± 0.0034 | 1.46 ± 0.08 | 0.691 ± 0.086
24 | UUUUC | 0.917 ± 0.042 | 2.01 ± 0.077 | 1.99 ± 0.18 | 0.94 ± 0.041

Row | Variant | FACS-Seq fitted mean (log10) (theophylline [1]) | normalized RNA/DNA level with ligand (log10) (theophylline [2]) | normalized RNA/DNA level without ligand (log10) (theophylline [3]) | FACS-Seq fitted mean (log10) (theophylline [4])
25 | AGCUC | 0.692 ± 0.15 | 2.04 ± 0.2 | 1.9 ± 0.046 | 0.565 ± 0.047
26 | AGCUA | 0.662 ± 0.064 | 2.03 ± 0.037 | 1.76 ± 0.044 | 0.7922 ± 0.0018
27 | GCAUG | 0.8295 ± 0.0081 | 1.939 ± 0.013 | 1.79 ± 0.026 | 0.966 ± 0.067
28 | UCCGG | 1.14 ± 0.16 | 1.97 ± 0.12 | 2.05 ± 0.077 | 1.02 ± 0.03
29 | CUGAC | 0.906 ± 0.093 | 1.99 ± 0.056 | 1.99 ± 0.11 | 0.902 ± 0.031
30 | AAUAU | -0.0622 ± 0.051 | 1.99 ± 0.083 | 1.75 ± 0.024 | 0.253 ± 0.077
31 | UUUAU | 0.444 ± 0.021 | 2.0202 ± 0.001 | 1.93 ± 0.06 | 0.417 ± 0.012
32 | AACCA | 0.923 ± 0.12 | 2.001 ± 0.0053 | 1.82 ± 0.047 | 0.908 ± 0.065
33 | GAGCC | 0.935 ± 0.11 | 1.953 ± 0.015 | 1.849 ± 0.013 | 0.918 ± 0.019
34 | GAAAC | 0.594 ± 0.018 | 1.97 ± 0.025 | 1.77 ± 0.072 | 0.621 ± 0.075
35 | UUCUU | 0.641 ± 0.06 | 2.03 ± 0.11 | 1.99 ± 0.057 | 0.58 ± 0.037
36 | UCUCC | 0.732 ± 0.037 | 1.93 ± 0.04 | 1.95 ± 0.023 | 0.7862 ± 0.0054
37 | CAGAC | 0.2 ± 0.032 | 2.04 ± 0.028 | 1.9 ± 0.086 | 0.0728 ± 0.14
38 | CAGAA | 0.0186 ± 0.078 | 1.95 ± 0.054 | 1.2 ± 0.22 | 0.681 ± 0.037
39 | UCUGG | 0.976 ± 0.062 | 2.057 ± 0.0087 | 2.01 ± 0.064 | 1.012 ± 0.0062
40 | AGUUC | 0.981 ± 0.011 | 2 ± 0.034 | 1.89 ± 0.049 | 1.02 ± 0.049
41 | AAGUC | 0.771 ± 0.032 | 1.96 ± 0.045 | 1.91 ± 0.1 | 0.866 ± 0.079
42 | AAGUU | 0.341 ± 0.057 | 1.939 ± 0.0073 | 1.75 ± 0.073 | 0.39 ± 0.035
43 | AAGUG | 0.678 ± 0.085 | 1.96 ± 0.04 | 1.79 ± 0.074 | 0.763 ± 0.076
44 | AUGAU | 0.439 ± 0.07 | 2.01 ± 0.086 | 1.75 ± 0.12 | 0.262 ± 0.027
45 | AUGAG | 0.655 ± 0.014 | 1.914 ± 0.0079 | 1.812 ± 0.0077 | 0.868 ± 0.029
46 | GCACU | 1.01 ± 0.018 | 1.966 ± 0.019 | 1.86 ± 0.022 | 1 ± 0.083
47 | CAUCC | 0.98 ± 0.04 | 2.04 ± 0.045 | 2 ± 0.12 | 1.162 ± 0.0037
48 | AGUGA | 0.239 ± 0.055 | 2 ± 0.0061 | 1.38 ± 0.17 | 0.535 ± 0.0085

Row | Variant | FACS-Seq fitted mean (log10) (theophylline [1]) | normalized RNA/DNA level with ligand (log10) (theophylline [2]) | normalized RNA/DNA level without ligand (log10) (theophylline [3]) | FACS-Seq fitted mean (log10) (theophylline [4])
49 | AGUGG | 0.488 ± 0.2 | 1.98 ± 0.064 | 1.84 ± 0.036 | 0.504 ± 0.026
50 | CACGC | 0.917 ± 0.026 | 2.04 ± 0.065 | 1.996 ± 0.013 | 1.04 ± 0.043
51 | CAACC | 1.06 ± 0.065 | 1.91 ± 0.059 | 1.994 ± 0.0033 | 1.02 ± 0.03
52 | GAAUG | 0.627 ± 0.023 | 1.9 ± 0.028 | 1.6 ± 0.093 | 0.713 ± 0.037
53 | AGAUU | 0.511 ± 0.068 | 1.99 ± 0.12 | 1.736 ± 0.01 | 0.627 ± 0.07
54 | AGAUG | 0.533 ± 0.011 | 1.9309 ± 0.0011 | 1.803 ± 0.017 | 0.4899 ± 0.0023
55 | AUAGU | 0.0428 ± 0.058 | 2.04 ± 0.045 | 1.76 ± 0.038 | 0.179 ± 0.18
56 | CAAAC | 0.851 ± 0.024 | 1.92 ± 0.024 | 1.82 ± 0.054 | 0.833 ± 0.033
57 | GACCU | 1.03 ± 0.1 | 1.99 ± 0.064 | 1.95 ± 0.06 | 1.03 ± 0.15
58 | UUAAA | 0.111 ± 0.099 | 1.895 ± 0.0096 | 1.26 ± 0.013 | 0.545 ± 0.078
59 | CGUAA | 0.083 ± 0.047 | 2.04 ± 0.029 | 1.303 ± 0.0043 | 0.767 ± 0.036
60 | CGUAC | 0.651 ± 0.027 | 1.92 ± 0.093 | 1.75 ± 0.062 | 0.792 ± 0.044
61 | CGCCU | 0.291 ± 0.031 | 2.08 ± 0.074 | 1.78 ± 0.12 | 0.38 ± 0.021
62 | CGGUA | 0.028 ± 0.083 | 1.894 ± 0.0076 | 1.3 ± 0.025 | 0.602 ± 0.0084
63 | CGGUC | 1.07 ± 0.037 | 1.98 ± 0.051 | 1.82 ± 0.076 | 1.13 ± 0.05
64 | CUAAA | 0.216 ± 0.045 | 2.02 ± 0.035 | 1.5 ± 0.14 | 0.454 ± 0.068
65 | CUAAC | 1.02 ± 0.018 | 1.94 ± 0.028 | 1.85 ± 0.019 | 0.893 ± 0.18
66 | AGAGG | 0.93 ± 0.038 | 1.956 ± 0.018 | 1.8 ± 0.11 | 0.966 ± 0.08
67 | AACAU | 0.214 ± 0.0061 | 1.93 ± 0.1 | 1.75 ± 0.067 | 0.439 ± 0.045
68 | CGAGU | 0.892 ± 0.093 | 1.992 ± 0.01 | 1.9 ± 0.02 | 0.873 ± 0.12
69 | CGAGC | 0.548 ± 0.016 | 2.013 ± 0.0077 | 1.94 ± 0.042 | 0.508 ± 0.037
70 | AACUC | 0.94 ± 0.044 | 2.01 ± 0.11 | 1.916 ± 0.016 | 0.924 ± 0.031
71 | AACUG | 0.814 ± 0.11 | 2 ± 0.12 | 1.8 ± 0.18 | 0.939 ± 0.032

— the supplement of paper PMC6757056
